Results published in article PMC8699845.
Each block holds one molecule with its values, some of them ahead of it.

Columns and labels:
[1] = molecular target: Recombinant human Wnt Inhibitory Factor 1 (human) (UniProt Q9Y5W5); experiment: SPR; BIACORE X; WIF1 or WIF domain amine-coupled to CM5 chip, rhShh injected at 20 µL/min; 20 mM Tris, 150 mM NaCl, 5 mM EDTA, 0.005% Tween 20, 100 µM CHAPS, pH 7.4; 1:1 Langmuir fit
[2] = molecular target: WIF domain of human WIF1 protein (human) (UniProt Q9Y5W5); experiment: as above
[3] = molecular target: dually lipidated recombinant human sonic hedgehog (human)

Sequence of UniProt Q9Y5W5 (Q9Y5W5 29-379): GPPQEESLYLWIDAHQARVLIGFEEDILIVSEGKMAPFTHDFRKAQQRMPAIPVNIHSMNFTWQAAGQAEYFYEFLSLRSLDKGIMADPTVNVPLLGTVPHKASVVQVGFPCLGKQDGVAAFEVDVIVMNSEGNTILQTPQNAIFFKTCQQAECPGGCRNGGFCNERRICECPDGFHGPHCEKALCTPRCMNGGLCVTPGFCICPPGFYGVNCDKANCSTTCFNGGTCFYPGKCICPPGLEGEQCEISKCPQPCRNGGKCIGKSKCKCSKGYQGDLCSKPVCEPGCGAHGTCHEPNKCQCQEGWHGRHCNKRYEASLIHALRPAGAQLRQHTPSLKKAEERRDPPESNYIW

Kd [1]: 2.06 nM
koff [1]: 0.000141 s⁻¹
kon [1]: 68500 M⁻¹ s⁻¹
Kd [2]: 1.18 nM
koff [2]: 5.03e-05 s⁻¹
kon [2]: 42600 M⁻¹ s⁻¹
Molecule: dually lipidated recombinant human sonic hedgehog (ligand)

Gli luciferase reporter in Gli Reporter-NIH3T3 cells; inhibition of the signaling activity of 0.2 nM rhShh preincubated with 0-50 nM WIF domain; EC50 [3]: 2.75 nM
B1: WIF domain of human WIF1 protein (domain or fragment)
chain: LWIDAHQARVLIGFEEDILIVSEGKMAPFTHDFRKAQQRMPAIPVNIHSMNFTWQAAGQAEYFYEFLSLRSLDKGIMADPTVNVPLLGTVPHKASVVQVGFPCLGKQDGVAAFEVDVIVMNSEGNTILQTPQNAIFFKTC
